From US20220204643A1 (published 2022)
Blank lines part the entries; values can stand above or below the binder they belong to.

Tests used:
[1] = molecular target: T1, RNA binding motif protein 47, transcript variant X10 (human, UniProt A0AV96 1-593)
T1 construct: HuProt array protein, full-length recombinant from yeast; also called RBM47
T1 sequence: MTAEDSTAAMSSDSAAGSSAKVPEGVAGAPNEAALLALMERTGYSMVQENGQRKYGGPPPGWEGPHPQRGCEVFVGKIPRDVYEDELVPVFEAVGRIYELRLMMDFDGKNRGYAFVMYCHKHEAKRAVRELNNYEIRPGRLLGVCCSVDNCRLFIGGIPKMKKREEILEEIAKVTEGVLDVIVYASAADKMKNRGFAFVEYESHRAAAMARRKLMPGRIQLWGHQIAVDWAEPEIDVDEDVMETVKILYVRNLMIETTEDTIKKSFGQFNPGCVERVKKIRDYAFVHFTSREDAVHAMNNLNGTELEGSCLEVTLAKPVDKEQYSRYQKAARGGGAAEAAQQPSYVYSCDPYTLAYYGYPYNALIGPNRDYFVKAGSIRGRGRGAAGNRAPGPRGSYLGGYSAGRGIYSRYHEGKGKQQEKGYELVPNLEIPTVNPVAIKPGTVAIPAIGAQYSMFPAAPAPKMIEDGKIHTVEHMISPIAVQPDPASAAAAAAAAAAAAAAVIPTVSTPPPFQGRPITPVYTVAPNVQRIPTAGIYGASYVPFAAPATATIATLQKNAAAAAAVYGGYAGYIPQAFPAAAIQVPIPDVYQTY

[2] = molecular target: T2, leucine rich repeat containing 28, transcript variant 1 (human, UniProt Q86X40 1-367)
T2 construct: HuProt array protein, full-length recombinant from yeast; also called LRRC28
T2 sequence (Q86X40 whole entry, change not shown): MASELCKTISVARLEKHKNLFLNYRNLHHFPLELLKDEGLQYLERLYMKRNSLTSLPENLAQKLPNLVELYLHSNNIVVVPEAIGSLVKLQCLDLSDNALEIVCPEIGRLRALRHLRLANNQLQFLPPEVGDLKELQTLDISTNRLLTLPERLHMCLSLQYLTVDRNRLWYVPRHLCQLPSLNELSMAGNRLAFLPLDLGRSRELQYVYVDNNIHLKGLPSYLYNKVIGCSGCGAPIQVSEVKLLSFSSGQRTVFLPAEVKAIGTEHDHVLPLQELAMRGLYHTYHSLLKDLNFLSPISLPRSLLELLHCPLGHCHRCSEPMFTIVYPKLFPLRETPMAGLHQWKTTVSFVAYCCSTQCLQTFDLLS

[3] = molecular target: T3, Atpase secretory pathway ca2+ transporting 1 (human, UniProt P98194 1-909)
T3 construct: HuProt array protein, full-length recombinant from yeast; also called ATP2C1
T3 sequence: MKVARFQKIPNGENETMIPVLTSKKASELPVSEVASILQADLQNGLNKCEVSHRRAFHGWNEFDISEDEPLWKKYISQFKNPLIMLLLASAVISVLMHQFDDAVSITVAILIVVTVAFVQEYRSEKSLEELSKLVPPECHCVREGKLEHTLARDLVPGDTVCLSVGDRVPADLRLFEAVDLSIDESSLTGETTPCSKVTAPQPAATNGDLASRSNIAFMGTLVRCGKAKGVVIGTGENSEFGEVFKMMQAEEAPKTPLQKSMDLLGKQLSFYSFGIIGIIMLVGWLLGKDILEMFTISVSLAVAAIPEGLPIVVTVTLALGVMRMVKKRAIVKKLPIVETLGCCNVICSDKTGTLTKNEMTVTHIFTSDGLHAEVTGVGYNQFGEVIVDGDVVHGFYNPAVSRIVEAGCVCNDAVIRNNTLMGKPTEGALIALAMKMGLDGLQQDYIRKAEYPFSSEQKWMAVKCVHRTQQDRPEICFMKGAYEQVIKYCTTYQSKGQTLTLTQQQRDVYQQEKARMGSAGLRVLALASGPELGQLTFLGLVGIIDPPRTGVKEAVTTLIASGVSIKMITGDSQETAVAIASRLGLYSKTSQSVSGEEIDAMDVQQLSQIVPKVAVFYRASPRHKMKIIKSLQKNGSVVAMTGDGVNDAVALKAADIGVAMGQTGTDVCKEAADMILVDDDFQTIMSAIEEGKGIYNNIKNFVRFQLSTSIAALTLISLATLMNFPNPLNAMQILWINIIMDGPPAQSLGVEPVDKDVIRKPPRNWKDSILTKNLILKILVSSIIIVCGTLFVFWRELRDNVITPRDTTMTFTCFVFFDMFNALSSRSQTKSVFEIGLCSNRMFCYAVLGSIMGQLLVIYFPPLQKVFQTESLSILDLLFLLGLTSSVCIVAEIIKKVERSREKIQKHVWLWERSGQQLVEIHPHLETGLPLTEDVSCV

[4] = molecular target: T4, teashirt zinc finger homeobox 2, transcript variant 1 (human, UniProt Q9NRE2 1-1034)
T4 construct: HuProt array protein, full-length recombinant from yeast; also called TSHZ2
T4 sequence: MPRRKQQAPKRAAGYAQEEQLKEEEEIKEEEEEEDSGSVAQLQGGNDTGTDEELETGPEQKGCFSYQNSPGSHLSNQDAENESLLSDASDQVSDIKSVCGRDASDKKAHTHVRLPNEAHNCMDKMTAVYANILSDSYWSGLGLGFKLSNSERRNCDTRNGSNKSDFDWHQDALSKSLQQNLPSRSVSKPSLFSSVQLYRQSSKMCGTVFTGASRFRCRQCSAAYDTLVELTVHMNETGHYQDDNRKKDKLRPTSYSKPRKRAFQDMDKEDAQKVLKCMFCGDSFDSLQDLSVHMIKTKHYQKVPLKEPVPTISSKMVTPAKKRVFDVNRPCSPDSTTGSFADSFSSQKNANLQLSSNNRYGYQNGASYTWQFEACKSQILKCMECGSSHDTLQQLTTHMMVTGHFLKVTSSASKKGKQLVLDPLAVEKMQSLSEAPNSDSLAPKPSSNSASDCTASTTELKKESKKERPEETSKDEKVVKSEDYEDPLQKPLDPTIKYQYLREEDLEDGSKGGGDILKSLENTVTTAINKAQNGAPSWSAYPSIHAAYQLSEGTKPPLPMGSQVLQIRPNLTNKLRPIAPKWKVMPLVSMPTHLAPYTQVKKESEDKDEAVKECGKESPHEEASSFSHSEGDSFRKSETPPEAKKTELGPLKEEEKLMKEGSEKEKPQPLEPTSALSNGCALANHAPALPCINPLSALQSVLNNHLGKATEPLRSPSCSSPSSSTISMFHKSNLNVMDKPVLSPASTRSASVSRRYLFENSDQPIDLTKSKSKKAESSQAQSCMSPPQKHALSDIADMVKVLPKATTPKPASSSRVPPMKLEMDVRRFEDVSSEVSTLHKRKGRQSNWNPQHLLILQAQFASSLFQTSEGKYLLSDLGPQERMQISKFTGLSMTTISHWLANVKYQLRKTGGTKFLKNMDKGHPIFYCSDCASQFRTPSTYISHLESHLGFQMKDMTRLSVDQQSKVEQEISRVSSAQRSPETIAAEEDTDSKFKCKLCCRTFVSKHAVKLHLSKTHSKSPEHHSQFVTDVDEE

[5] = molecular target: T5, LIM homeobox 5 (human, UniProt Q9H2C1 1-402)
T5 construct: HuProt array protein, full-length recombinant from yeast; also called LHX5
T5 sequence: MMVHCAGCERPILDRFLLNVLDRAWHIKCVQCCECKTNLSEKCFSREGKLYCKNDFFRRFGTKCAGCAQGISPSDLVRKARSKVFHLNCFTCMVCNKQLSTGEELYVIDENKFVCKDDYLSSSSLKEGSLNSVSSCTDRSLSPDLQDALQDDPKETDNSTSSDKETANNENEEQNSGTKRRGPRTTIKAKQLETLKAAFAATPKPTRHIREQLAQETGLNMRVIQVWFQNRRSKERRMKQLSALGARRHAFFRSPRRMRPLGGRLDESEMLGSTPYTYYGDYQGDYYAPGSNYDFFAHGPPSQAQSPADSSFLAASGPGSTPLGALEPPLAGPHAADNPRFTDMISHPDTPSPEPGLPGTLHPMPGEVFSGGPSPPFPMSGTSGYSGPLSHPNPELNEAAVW

[6] = molecular target: T6, growth factor receptor bound protein 2, transcript variant 1 (human, UniProt P62993 1-217)
T6 construct: HuProt array protein, full-length recombinant from yeast; also called GRB2

[7] = molecular target: T7, RAD1 checkpoint DNA exonuclease, transcript variant 1 (human, UniProt O60671 1-282)
T7 construct: HuProt array protein, full-length recombinant from yeast
T7 sequence: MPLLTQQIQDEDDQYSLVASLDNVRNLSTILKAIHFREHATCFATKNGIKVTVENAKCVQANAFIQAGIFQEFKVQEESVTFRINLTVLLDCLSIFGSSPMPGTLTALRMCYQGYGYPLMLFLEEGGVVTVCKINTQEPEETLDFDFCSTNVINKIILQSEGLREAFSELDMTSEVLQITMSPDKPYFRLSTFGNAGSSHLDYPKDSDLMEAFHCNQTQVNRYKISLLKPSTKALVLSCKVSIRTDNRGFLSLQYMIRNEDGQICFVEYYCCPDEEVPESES

[8] = molecular target: T8, Microtubule associated scaffold protein 1 (human, UniProt Q9ULD2 875-1270)
T8 construct: HuProt array protein, full-length recombinant from yeast; also called MTUS1
T8 sequence: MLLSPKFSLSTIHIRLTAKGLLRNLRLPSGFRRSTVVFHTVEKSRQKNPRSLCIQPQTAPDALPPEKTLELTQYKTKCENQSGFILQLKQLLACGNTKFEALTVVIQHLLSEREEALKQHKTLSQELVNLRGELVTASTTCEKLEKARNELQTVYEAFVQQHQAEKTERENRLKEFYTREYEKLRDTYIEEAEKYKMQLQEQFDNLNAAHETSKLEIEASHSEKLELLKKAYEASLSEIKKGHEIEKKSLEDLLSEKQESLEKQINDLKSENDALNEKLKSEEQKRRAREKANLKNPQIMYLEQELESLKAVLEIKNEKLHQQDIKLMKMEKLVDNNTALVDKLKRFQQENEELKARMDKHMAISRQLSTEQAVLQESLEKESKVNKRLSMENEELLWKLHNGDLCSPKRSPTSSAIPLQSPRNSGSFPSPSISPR

[9] = molecular target: T9, coiled-coil domain containing 102A, transcript variant X1 (human, UniProt Q96A19 1-550)
T9 construct: HuProt array protein, full-length recombinant from yeast; also called CCDC102A
T9 sequence (Q96A19 other isoform, or with tags, fused parts or gaps mutant limits assumed): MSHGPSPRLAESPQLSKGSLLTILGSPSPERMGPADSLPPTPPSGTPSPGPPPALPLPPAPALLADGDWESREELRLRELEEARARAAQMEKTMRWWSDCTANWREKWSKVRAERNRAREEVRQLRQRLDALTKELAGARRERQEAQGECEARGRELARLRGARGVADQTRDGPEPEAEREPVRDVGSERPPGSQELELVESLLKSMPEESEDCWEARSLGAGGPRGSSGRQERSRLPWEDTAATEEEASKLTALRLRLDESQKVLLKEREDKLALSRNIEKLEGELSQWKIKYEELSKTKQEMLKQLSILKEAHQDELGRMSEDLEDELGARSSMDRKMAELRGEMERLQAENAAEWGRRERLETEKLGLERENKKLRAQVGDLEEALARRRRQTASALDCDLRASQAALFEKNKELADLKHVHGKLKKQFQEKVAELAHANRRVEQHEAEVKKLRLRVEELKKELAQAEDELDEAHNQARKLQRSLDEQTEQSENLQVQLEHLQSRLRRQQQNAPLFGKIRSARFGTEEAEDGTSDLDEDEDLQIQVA

[10] = molecular target: T10, NCCRP1, F-box associated domain containing (human, UniProt Q6ZVX7 1-275)
T10 construct: HuProt array protein, full-length recombinant from yeast
T10 sequence: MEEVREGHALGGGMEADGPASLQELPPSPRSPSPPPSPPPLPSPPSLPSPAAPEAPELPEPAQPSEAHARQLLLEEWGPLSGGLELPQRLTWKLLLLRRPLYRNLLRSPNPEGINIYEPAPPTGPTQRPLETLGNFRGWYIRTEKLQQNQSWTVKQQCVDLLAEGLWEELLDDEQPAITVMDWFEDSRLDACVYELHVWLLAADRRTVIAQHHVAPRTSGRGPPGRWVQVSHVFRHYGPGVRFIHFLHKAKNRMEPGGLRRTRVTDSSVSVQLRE

B1: THNS1004 (antibody, V domains shown)
VH: EVQLVESGGGLVQPGGSLRLSCAASGFTFSSNWMSWVRQAPGKGLEWVANIKEDGSEKYYVDSVKGRFTIFRDNAKNSLYLQMNSLRAEDTAVYYCARVPSRYGRSRGAFDIWGQGTMVTVSS
VL: DIQMTQSPSSLSASVGDRVTITCRASQSISSYLNWYQQKPGKAPKLLIYAASSLQSGVPSRFSGSGSGTDFTLAISSLQPEDFATYYCHQTYSTRLTFGGGTEVEIKR
notes: detected with anti-human IgG Fc
- binding result [1]: binds

B2: TESO1003 (antibody, V domains shown)
VH: QVQLVESGGGVVQPGRSLRLSCAASGFTFSNYDMHWVRQAPGKGLEWVTVVSYDGTNKYYAESVQGRFTISRDNSKNTLYLQMNSLRTEDTAVYYCAKEGGWGNTVTTSYYYYGMDVWGQGTTVTVSS
VL: QIVLTQSPATLSLSPGERATLSCRASQSVSNYLAWYQQKPGQAPRLLIYDASNRATGIPARFSGSGSGTDFTLTISSLEPEDFAVYYCQQRSNWPPYTFGQGTKLDIKR
notes: as for B1
- binding result [2]: binds

B3: TESO1006 (antibody, V domains shown)
VH: QLHLQESGPGLVKPSETLSLTCTVSGGSVSSSSYYWGWVRQPPGKGLEWIGHVYYSGRTYYNPSLKSRATISLDTSKNQFSLKLSSLTATDTAVYYCATIVAAYSYGFEFDPWGQGILVIVSS
VL: QSVLTQPPSVSAAPGQKVTISCSGGSSNIGNNYVSWYQQLPGTAPKLIIYDNDKRPAGIPDRFSGSKSGSSATLGITGLQNGDEAEYYCGTWDSSLGGGVFGGGTKVTVLG
notes: as for B1
- binding result [3]: binds
- binding result [4]: binds

Next, values leading:

- binding result [5]: binds
- binding result [6]: binds
B4: TCOL1009 (antibody, V domains shown)
VH: PVQLVQSGAEVKKPGASVKVSCKASGDTFPNYVISWVRQAPGQGLEWVGCINTNNGKTNYVQKLQGRVILTTDTSTNTANMELRSLRFDDTAVYYCARERGQVRSYGMDVWGQGTAVTVSS
VL: PYELTQPPSVSVSPGQTANITCSGDKLGDICVCWYQQKPGQSPVLVIYQHNKRPSGIPERFSGSNSGNTATLTISATQATDEAIYYCQSWDSSSVLFGGGTKLTVLG
notes: as for B1

- binding result [7]: binds
- binding result [8]: binds
B5: THNS1006 (antibody, V domains shown)
VH: QVQLVESGGGVVQPGRSLRLSCAASGFTFSSYGMHWVRQAPGKGLEWVAIISYDGSNKYYADSVKGRFTISRDKSKNTLYLQMNSLRAEDTAVYYCAKSKGNYRDAMDVWGQGTTVTVSS
VL: SYVLTQPPSVSVAPGQTARITCGGNNIGSKSVHWYQQKPGQAPVLVVYDDSDRPSGIPERFSGSNSGNTATLTISRVEAGDEADYYCQVWDSSSDPWVFGGGTKLTVLG
notes: as for B1

- binding result [9]: binds
- binding result [10]: binds
B6: THNS1003 (antibody, V domains shown)
VH: VVQLVESGGGLVQPGGSLRLSCAASGFTFNNYEMNWVRQAPGKGLEWVSYISSSGSTIYYADSVKGRFTISRDNAKNSLYLQMNSLRAEDTAVYYCARQMVTTRGYWGQGTLVTVSS
VL: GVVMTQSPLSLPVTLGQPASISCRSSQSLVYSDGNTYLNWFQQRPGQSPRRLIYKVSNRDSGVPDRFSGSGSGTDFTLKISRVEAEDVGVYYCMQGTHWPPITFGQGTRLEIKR
notes: as for B1
